This is an account of results in publication PMC8740593.

For the series, the target named is T1, QHB-DB (QHB/OsWOX5 DNA-binding domain) (Oryza sativa (rice), UniProt Q8W0F1 1-82).
T1 sequence: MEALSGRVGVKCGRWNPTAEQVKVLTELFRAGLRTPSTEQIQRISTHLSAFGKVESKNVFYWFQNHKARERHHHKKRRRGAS
Nature of the series: EMSA.

B1: P1 (dsDNA)
DNA 1: AAAGATAATAAAAATGTTTATTTCGATGCATTAATTAGTTGTTAGAGTCTTTTGTTGTGT
DNA 2: ACACAACAAAAGACTCTAACAACTAATTAATGCATCGAAATAAACATTTTTATTATCTTT
On to B1, for which the binding result is listed as “no binding”.

B2: P2 (dsDNA)
DNA 1: TTTTATAATTAATCACTCCTTGCTGCTTAATCACCCAATTAATCACACCTGATCTACCCA
DNA 2: TGGGTAGATCAGGTGTGATTAATTGGGTGATTAAGCAGCAAGGAGTGATTAATTATAAAA
For B2, the binding result is “binds”.

B3: M1 (Core 1 mutated) (dsDNA)
DNA 1: TTTTATGGCCGGTCACTCCTTGCTGCTTAATCACCCAATTAATCACACCTGATCTACCCA
DNA 2: TGGGTAGATCAGGTGTGATTAATTGGGTGATTAAGCAGCAAGGAGTGACCGGCCATAAAA
Regarding B3, the binding result is listed as “no binding”.

B4: M3 (Core 3 mutated) (dsDNA)
DNA 1: TTTTATAATTAATCACTCCTTGCTGCTTAATCACCCAACCGGTCACACCTGATCTACCCA
DNA 2: TGGGTAGATCAGGTGTGACCGGTTGGGTGATTAAGCAGCAAGGAGTGATTAATTATAAAA
As to B4, the binding result was “no binding”.

B5: Positive control (AGAMOUS intron) (dsDNA)
DNA 1: ATGTCTATTGGATTTATACCCAATGTGTTAATGGGTTGTTGACACATGTCACATGTCTGA
DNA 2: TCAGACATGTGACATGTGTCAACAACCCATTAACACATTGGGTATAAATCCAATAGACAT
As for B5, the binding result was “binds”.

B6: P3 (dsDNA)
DNA 1: GTAGATGGTACCCGCTGCAGTAAGCCTCCATTAAGCTTGAATTGCTGCTCCCTTGGGCGC
DNA 2: GCGCCCAAGGGAGCAGCAATTCAAGCTTAATGGAGGCTTACTGCAGCGGGTACCATCTAC
For the molecule B6, the binding result was “no binding”.
